The values that follow are results of earlier work, collected in publication PMC6447450.

This series deals with Mcl-1 (Homo sapiens) (UniProt Q07820).
Chain of Mcl-1 (Homo sapiens) (Q07820 whole entry): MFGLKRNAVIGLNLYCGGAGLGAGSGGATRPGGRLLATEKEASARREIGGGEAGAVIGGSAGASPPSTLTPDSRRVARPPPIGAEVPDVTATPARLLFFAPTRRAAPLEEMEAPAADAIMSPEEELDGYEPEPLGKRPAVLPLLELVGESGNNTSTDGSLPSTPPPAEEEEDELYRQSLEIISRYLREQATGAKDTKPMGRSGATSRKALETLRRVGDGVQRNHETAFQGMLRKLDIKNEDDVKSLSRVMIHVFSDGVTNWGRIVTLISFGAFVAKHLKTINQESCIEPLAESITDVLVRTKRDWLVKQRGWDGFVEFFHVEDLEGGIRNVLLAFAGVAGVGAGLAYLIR

Chain of native BH3 peptide (BIM, 2PQK) BH3 (O43521 143-165): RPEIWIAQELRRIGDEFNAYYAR

The Kd is a measure of binding affinity in units of concentration. For the substance “native BH3 peptide (BIM, 2PQK) BH3 (from UniProt O43521)”, the Kd is 1 nM.
